Laboratory results: US20230140200A1, “COMPOSITIONS AND METHODS FOR DETECTING CELLS UNDERGOING FERROPTOSIS USING AN ANTIBODY” (THE TRUSTEES OF COLUMBIA UNIVERSITY IN THE CITY OF NEW YORK, priority 2020, published 2023)
“Also recorded” adds a separate entry of the source.

Tests used:
[1] = test system: HCC mouse xenograft tumor tissue (Huh-7 cells); experiment: Staining of hepatocellular carcinoma (HCC) mouse xenograft tumor tissue sections; settings: 50 mg/kg IKE once daily IP for 2 days
Method: Tumor tissues were fixed in 4% paraformaldehyde (PFA) for 24 h at 4° C. followed by washing with PBS three times. The tissues were perfused in 30% sucrose for 24 h at 4° C. for cryo-protection. The samples were embedded in OCT cryostat sectioning medium, and then moved directly into a cryostat. After equilibration of temperature, frozen tumor tissues were cut into 5 μm thick sections. Tissue sections were mounted on to poly-L-lysine coated slides by placing the cold sections onto warm slides. Slides were stored at −80° C. until staining. For staining, slides were warmed to room temperature followed by washing with PBS twice. A hydrophobic barrier pen was used to draw a circle on each slide. The slides were permeabilized with PBS with 0.4% Triton X-100 (PBT) twice before non-specific-binding blocking by incubating the sections with 10% goat serum (ThermoFisher 50197Z) for 30 min at room temperature. […] All images were captured on a Zeiss LSM 800 confocal microscope at Plan-Apochromat 63×/1.40 Oil DIC objective with constant laser intensity for all analyzed samples. The intensity above threshold of the fluorescent signal of the bound antibodies was analyzed using NIH ImageJ software (ImageJ, RRID:SCR_003070). Data were expressed as fold change comparing with the vehicle. […]

[2] = molecular target: T1, transferrin receptor protein 1 (Homo sapiens, UniProt P02786); experiment: Immunoprecipitation-mass spectrometry antigen identification; format: binding; settings: HT-1080 cell lysate, IP-MS
T1 construct: endogenous in cells; host or cells: HT-1080
T1 sequence (P02786 whole entry): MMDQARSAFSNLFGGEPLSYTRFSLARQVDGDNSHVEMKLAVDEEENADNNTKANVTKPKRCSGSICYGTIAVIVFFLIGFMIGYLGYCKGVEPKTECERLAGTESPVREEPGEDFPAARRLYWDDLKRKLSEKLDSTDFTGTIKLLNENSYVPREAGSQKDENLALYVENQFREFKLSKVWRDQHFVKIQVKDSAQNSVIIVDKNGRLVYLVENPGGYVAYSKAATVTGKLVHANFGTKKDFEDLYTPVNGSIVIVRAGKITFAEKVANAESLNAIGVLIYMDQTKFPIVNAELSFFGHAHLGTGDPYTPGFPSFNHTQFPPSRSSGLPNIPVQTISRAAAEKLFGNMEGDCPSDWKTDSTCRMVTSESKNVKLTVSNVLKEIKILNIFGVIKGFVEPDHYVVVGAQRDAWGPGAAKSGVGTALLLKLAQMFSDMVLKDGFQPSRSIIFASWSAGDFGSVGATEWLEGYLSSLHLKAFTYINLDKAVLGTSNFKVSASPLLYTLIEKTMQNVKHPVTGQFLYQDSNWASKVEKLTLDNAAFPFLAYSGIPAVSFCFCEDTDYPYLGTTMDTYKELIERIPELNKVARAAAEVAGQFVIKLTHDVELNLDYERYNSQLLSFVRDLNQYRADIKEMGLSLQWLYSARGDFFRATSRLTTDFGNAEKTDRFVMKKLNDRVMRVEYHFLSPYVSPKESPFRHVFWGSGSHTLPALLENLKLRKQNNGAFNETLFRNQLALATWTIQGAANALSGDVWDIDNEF
Method: HT-1080 cells were seeded in DMEM (Corning 10-013-CM) and 10% Hi-FBS with 1% penicillin and streptomycin (PS) with 1% MEM Non-Essential Amino Acids Solution (100×) (Thermo Fisher Scientific 11140-076) 16 h prior to use. DMSO or 1 μM of RSL3 was added and incubated for 4 h. Following treatment, the medium was aspirated from each dish and cells were washed twice with PBS. Cells were lysed with 70 μl lysis buffer (RIPA buffer from ThermoFisher, cat. 89900, 1 mM EDTA, 1 mM PMSF, 1× Halt™ protease inhibitor cocktail from ThermoFisher, cat. 78430 and 1× Halt™ phosphatase inhibitor cocktail from ThermoFisher, cat. 78426). Unlysed cells and debris were pelleted for 15 min at 16,000×g at 4° C. The samples were incubated with 10 μg of 3F3 FMA overnight at 4° C. with shaking. The next day, Thermo Scientific Pierce Protein AG Magnetic Beads (Thermo Fisher Scientific 88802) were washed with TBS with 0.05% Tween 20 (wash buffer) and then were incubated with sample/antibody mixture for 1 h with mixing. The beads were collected with a magnetic stand and then washed with wash buffer for three times. The beads were used for mass spectrometry.
Trypsin digestion was performed overnight at 37° C. […] CID fragmentation was applied with 35% collision energy and resulting fragments were detected using the rapid scan rate in the ion trap. […]
Raw mass spectrometric data were analyzed using MaxQuant v. […]

amino acid coverage of TfR1 [2]: 53% | confidence of identification of transferrin receptor protein 1 as target antigen [2]: 63%
B1: 3F3-FMA: Murine monoclonal IgG1 raised against ferroptotic membrane fractions; antigen is transferrin receptor protein 1 (TfR1) (antibody, V domains shown)
VH: EVLLQQSGTELVRPGALVKLSCKASGFNIQDLYIHWVKQRPEQGLEWIGWIDPETDNTIYDPKFQGKASITADTSSNTAYLQLSSLTSEDTAMYYCSTGLLQWYFDVWGAGTAVTVSS
VL: DIVMTQSPSSLAMSIGQKVTMRCKSSQSLLNSYNQKNCLAWYQQKPGQSPKLLLYFVSTRESGVPDRFIGSGSGTDFTLTISSVQAEDLADYFCQQHYSTPLTFGAGTKLELK
antibody staining intensity in IKE-treated vs vehicle tumor tissue [1]: increased intensities; also recorded: difference in intensities
